The chains are these.
B1: glmS ribozyme (parent)
chain: AUAAAAGCGCCAGAACUACAGAAAUGUAGUUGACGAGGAGGAGGUUUAUCGAAUUUUCGGCGGAUGCCUCCAAA

Common to all, as to settings: with glucosamine-6-phosphate
Data set [1] covers variants of B1. Briefly: self-cleavage kobs at 40 uM GlcN6P; higher = faster cleavage; RNA array. In outline: (§1)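 Barcoded ribozyme variants were transcribed in situ on sequenced MiSeq chips by E. coli RNA polymerase. At 37 °C, a hybridised Cy3 probe tracked them while glucosamine-6-phosphate (40 μM to 10 mM) in HEPES/KCl/Mg(OAc)2 buffer flowed in and tiles were imaged over ~14 h. Per-tile medians of signals normalised to baseline and to non-cleaving reference variants were fit to one- or two-exponential decays, giving kobs. kcat and KM came from weighted Michaelis–Menten fits across concentrations.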

In data set [2] the parent is B1. Briefly: self-cleavage kobs at 2500 uM GlcN6P; higher = faster cleavage; RNA array. In outline: as §1
In data set [3] the parent is B1. Briefly: self-cleavage kobs at 10000 uM GlcN6P; higher = faster cleavage; RNA array. The method, boiled down:
as §1

The variants in data set [4] derive from B1. Briefly: self-cleavage kobs at 160 uM GlcN6P; higher = faster cleavage; RNA array. In outline: as §1
Data set [5] covers variants of B1. Briefly: self-cleavage kobs at 640 uM GlcN6P; higher = faster cleavage; RNA array. The method, boiled down: as §1
Data set [6] covers variants of B1. Briefly: kcat; higher = faster cleavage; RNA array. In outline:
as §1

In data set [7] the parent is B1. Briefly: KM; higher = weaker cofactor use; RNA array. In outline:
as §1

For orientation: kcat means the maximal rate divided by the concentration of active sites. As usually defined, the KM is the concentration of substrate that gives half-maximal velocity.

± gives the standard error. For part of these data: Fewer inactive variants are shown than the library holds.

As for U31C G32A G60U, the “self-cleavage kobs at 40 uM GlcN6P” value in data set [1] is less than 1e-05 s⁻¹. Further, the “self-cleavage kobs at 2500 uM GlcN6P” value in data set [2] was less than 1e-05 s⁻¹. Also, the “self-cleavage kobs at 10000 uM GlcN6P” value in data set [3] was less than 1e-05 s⁻¹.
As for G35A U45A C61A G62C, the “self-cleavage kobs at 40 uM GlcN6P” value in data set [1] is less than 1e-05 s⁻¹.
Regarding A6G G60C, the “self-cleavage kobs at 40 uM GlcN6P” value in data set [1] is less than 1e-05 s⁻¹. For the same variant, in data set [4], the “self-cleavage kobs at 160 uM GlcN6P” value is less than 1e-05 s⁻¹. Also, the “self-cleavage kobs at 640 uM GlcN6P” value in data set [5] is less than 1e-05 s⁻¹. In addition, the “self-cleavage kobs at 2500 uM GlcN6P” value in data set [2] was less than 1e-05 s⁻¹.
On to C8U G38U A39C C58A, for which the “self-cleavage kobs at 40 uM GlcN6P” value in data set [1] is less than 1e-05 s⁻¹.
For the variant U46A U57G, the “self-cleavage kobs at 40 uM GlcN6P” value in data set [1] is less than 1e-05 s⁻¹. In data set [4], the “self-cleavage kobs at 160 uM GlcN6P” value was less than 1e-05 s⁻¹.
Turning to C8A C68G, in data set [1], the “self-cleavage kobs at 40 uM GlcN6P” value amounted to 0.000368 ± 0.00014 s⁻¹.
Take A15G G32U U56G G60U: the “self-cleavage kobs at 40 uM GlcN6P” value in data set [1] is less than 1e-05 s⁻¹.
Turning to G43U U46A U47G C70G, the “self-cleavage kobs at 40 uM GlcN6P” value in data set [1] was less than 1e-05 s⁻¹. In addition, the “self-cleavage kobs at 640 uM GlcN6P” value in data set [5] is less than 1e-05 s⁻¹. Besides, in data set [2], the “self-cleavage kobs at 2500 uM GlcN6P” value is less than 1e-05 s⁻¹. The “self-cleavage kobs at 10000 uM GlcN6P” value in data set [3] is less than 1e-05 s⁻¹.
Turning to U31G C61G, in data set [1], the “self-cleavage kobs at 40 uM GlcN6P” value was less than 1e-05 s⁻¹. Also, the “self-cleavage kobs at 160 uM GlcN6P” value in data set [4] was less than 1e-05 s⁻¹. Also, the “self-cleavage kobs at 640 uM GlcN6P” value in data set [5] is less than 1e-05 s⁻¹. The “self-cleavage kobs at 10000 uM GlcN6P” value in data set [3] is less than 1e-05 s⁻¹.
Turning to C16A U31C A42G G44U C70G, the “self-cleavage kobs at 40 uM GlcN6P” value in data set [1] was less than 1e-05 s⁻¹.
As for A52C C70U, the turnover number (kcat) in data set [6] turned out to be 5.27e-05 ± 9.4e-06 s⁻¹. Moreover, in data set [2], the “self-cleavage kobs at 2500 uM GlcN6P” value turned out to be 5.72e-05 ± 1e-05 s⁻¹. Moreover, the “self-cleavage kobs at 10000 uM GlcN6P” value in data set [3] stood at 4.63e-05 ± 7.5e-06 s⁻¹.
With G29U A52U U65A, the “self-cleavage kobs at 40 uM GlcN6P” value in data set [1] is less than 1e-05 s⁻¹.
For C34A G43C, the “self-cleavage kobs at 40 uM GlcN6P” value in data set [1] is less than 1e-05 s⁻¹. Further, the “self-cleavage kobs at 160 uM GlcN6P” value in data set [4] is less than 1e-05 s⁻¹. For the same variant, the “self-cleavage kobs at 640 uM GlcN6P” value in data set [5] is less than 1e-05 s⁻¹. Further, the “self-cleavage kobs at 10000 uM GlcN6P” value in data set [3] is less than 1e-05 s⁻¹.
With C10U C16G G35C A42U U57G G59A, the “self-cleavage kobs at 40 uM GlcN6P” value in data set [1] is less than 1e-05 s⁻¹.
Consider A6C G62C, for which the “self-cleavage kobs at 40 uM GlcN6P” value in data set [1] was less than 1e-05 s⁻¹. The “self-cleavage kobs at 160 uM GlcN6P” value in data set [4] is less than 1e-05 s⁻¹. Further, the “self-cleavage kobs at 640 uM GlcN6P” value in data set [5] is less than 1e-05 s⁻¹. The “self-cleavage kobs at 2500 uM GlcN6P” value in data set [2] was less than 1e-05 s⁻¹. In addition, the “self-cleavage kobs at 10000 uM GlcN6P” value in data set [3] is less than 1e-05 s⁻¹.
Take G32U A52C U55G C61U: the “self-cleavage kobs at 40 uM GlcN6P” value in data set [1] was less than 1e-05 s⁻¹. Besides, the “self-cleavage kobs at 10000 uM GlcN6P” value in data set [3] was less than 1e-05 s⁻¹.
C11U C16U: in data set [1], the “self-cleavage kobs at 40 uM GlcN6P” value stood at 6.96e-05 ± 2e-05 s⁻¹. In data set [4], the “self-cleavage kobs at 160 uM GlcN6P” value is 8.34e-05 ± 2.3e-05 s⁻¹. In data set [5], the “self-cleavage kobs at 640 uM GlcN6P” value was 0.000352 ± 9.4e-05 s⁻¹. The “self-cleavage kobs at 2500 uM GlcN6P” value in data set [2] worked out at 0.00134 ± 0.00058 s⁻¹. The “self-cleavage kobs at 10000 uM GlcN6P” value in data set [3] was 0.00196 ± 0.0007 s⁻¹.
Regarding G7U U31A, the “self-cleavage kobs at 40 uM GlcN6P” value in data set [1] was less than 1e-05 s⁻¹. Moreover, the “self-cleavage kobs at 160 uM GlcN6P” value in data set [4] is less than 1e-05 s⁻¹. The “self-cleavage kobs at 640 uM GlcN6P” value in data set [5] was less than 1e-05 s⁻¹. Moreover, the “self-cleavage kobs at 2500 uM GlcN6P” value in data set [2] was less than 1e-05 s⁻¹. For the same variant, in data set [3], the “self-cleavage kobs at 10000 uM GlcN6P” value is less than 1e-05 s⁻¹.
As for G9A G62U, the “self-cleavage kobs at 40 uM GlcN6P” value in data set [1] was less than 1e-05 s⁻¹. In addition, the “self-cleavage kobs at 160 uM GlcN6P” value in data set [4] is less than 1e-05 s⁻¹. For the same variant, the “self-cleavage kobs at 2500 uM GlcN6P” value in data set [2] is less than 1e-05 s⁻¹.
As to A48G U69A, the “self-cleavage kobs at 40 uM GlcN6P” value in data set [1] was less than 1e-05 s⁻¹.
With A12C U45A, in data set [6], the kcat was found to be 0.0415 ± 0.0022 s⁻¹. Besides, in data set [7], the KM came out at 1690 ± 110 µM. In addition, in data set [1], the “self-cleavage kobs at 40 uM GlcN6P” value was 0.000958 ± 0.00019 s⁻¹. Further, in data set [4], the “self-cleavage kobs at 160 uM GlcN6P” value came to 0.00352 ± 0.00099 s⁻¹. Also, the “self-cleavage kobs at 640 uM GlcN6P” value in data set [5] worked out at 0.0118 ± 0.003 s⁻¹. The “self-cleavage kobs at 2500 uM GlcN6P” value in data set [2] was determined as 0.0233 ± 0.0073 s⁻¹. The “self-cleavage kobs at 10000 uM GlcN6P” value in data set [3] is 0.037 ± 0.013 s⁻¹.
Take C34G C58G: in data set [1], the “self-cleavage kobs at 40 uM GlcN6P” value is less than 1e-05 s⁻¹. In addition, the “self-cleavage kobs at 160 uM GlcN6P” value in data set [4] is less than 1e-05 s⁻¹. Moreover, the “self-cleavage kobs at 640 uM GlcN6P” value in data set [5] is less than 1e-05 s⁻¹. Further, the “self-cleavage kobs at 10000 uM GlcN6P” value in data set [3] was less than 1e-05 s⁻¹.
Turning to G41C C58A, the “self-cleavage kobs at 40 uM GlcN6P” value in data set [1] was less than 1e-05 s⁻¹. Besides, in data set [4], the “self-cleavage kobs at 160 uM GlcN6P” value was less than 1e-05 s⁻¹. Besides, the “self-cleavage kobs at 10000 uM GlcN6P” value in data set [3] is less than 1e-05 s⁻¹.

Values taken from the supplement of paper PMC7125110.
